Test [1] deals with T1, human IL-1RAcP (residues 1-350) fused to human IgG1-Fc (human, UniProt Q9NPH3 21-350).
T1 sequence (looked up): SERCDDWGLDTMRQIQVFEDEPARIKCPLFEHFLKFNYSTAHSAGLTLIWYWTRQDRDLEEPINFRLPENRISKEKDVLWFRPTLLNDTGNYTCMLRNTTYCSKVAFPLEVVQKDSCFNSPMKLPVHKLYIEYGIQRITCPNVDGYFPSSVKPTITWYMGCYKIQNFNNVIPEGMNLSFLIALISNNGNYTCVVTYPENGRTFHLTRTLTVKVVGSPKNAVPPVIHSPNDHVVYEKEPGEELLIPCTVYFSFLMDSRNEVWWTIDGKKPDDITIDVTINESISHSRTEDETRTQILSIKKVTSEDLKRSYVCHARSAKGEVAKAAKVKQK
Briefly: SPR. In general terms: In SPR one partner is held on a chip, and binding of the other changes the refractive index at the surface.

Test [2] addresses T2, human IL-1RAcP (residues 1-350) (human, UniProt Q9NPH3 21-350).
T2 sequence (looked up): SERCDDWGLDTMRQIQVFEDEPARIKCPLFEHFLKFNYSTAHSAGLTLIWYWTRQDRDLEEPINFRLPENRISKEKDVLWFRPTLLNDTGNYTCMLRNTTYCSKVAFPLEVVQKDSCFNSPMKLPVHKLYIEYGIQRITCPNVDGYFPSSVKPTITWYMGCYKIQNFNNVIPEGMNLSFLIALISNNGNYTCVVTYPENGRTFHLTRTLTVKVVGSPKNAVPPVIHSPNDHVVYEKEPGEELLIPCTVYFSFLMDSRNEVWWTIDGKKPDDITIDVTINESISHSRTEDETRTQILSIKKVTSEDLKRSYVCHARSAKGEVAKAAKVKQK
Briefly: HDX-MS.

The source of these data is PMC5849085 (Immunity, 2017).

B1: human IL-33:ST2 binary complex (complex)
chain 1: SITGISPITEYLASLSTYNDQSITFALEDESYEIYVEDLKKDEKKDKVLLSYYESQHPSNESGDGVDGKMLMVTLSPTKDFWLHANNKEHSVELHKCEKPLPDQAFFVLHNMHSNCVSFECKTDPGVFIGVKDNHLALIKVDSSENLCTENILFKLSET
chain 2: QTGKFSKQSWGLENEALIVRCPRQGKPSYTVDWYYSQTNKSIPTQERNRVFASGQLLKFLPAAVADSGIYTCIVRSPTFNRTGYANVTIYKKQSDCNVPDYLMYSTVSGSEKNSKIYCPTIDLYNWTAPLEWFKNCQALQGSRYRAHKSFLVIDNVMTEDAGDYTCKFIHNENGANYSVTATRSFTVKDEQGFSLFPVIGAPAQNEIKEVEIGKNANLTCSACFGKGTQFLAAVLWQLNGTKITDFGEPRIQQEEGQNQSFSNGLACLDMVLRIADVKEEDLLLQYDCLALNLHGLRRHTVRLSRK
Turning to B1, the “half-life of the ternary complex” value in test [1] is 26 min. In addition, the “half-life of the ternary complex (EX1 kinetics of IL-1RAcP(150-156))” value in test [2] is 10 min.
